Read-outs that look alike come from different tables or passages of the source.
B1: FUS (protein, UniProt P35637 1-526, looked up)
RNA-binding protein FUS: MASNDYTQQATQSYGAYPTQPGQGYSQQSSQPYGQQSYSGYSQSTDTSGYGQSSYSSYGQSQNTGYGTQSTPQGYGSTGGYGSSQSSQSSYGQQSSYPGYGQQPAPSSTSGSYGSSSQSSSYGQPQSGSYSQQPSYGGQQQSYGQQQSYNPPQGYGQQNQYNSSSGGGGGGGGGGNYGQDQSSMSSGGGSGGGYGNQDQSGGGGSGGYGQQDRGGRGRGGSGGGGGGGGGGYNRSSGGYEPRGRGGGRGGRGGMGGSDRGGFNKFGGPRDQGSRHDSEQDNSDNNTIFVQGLGENVTIESVADYFKQIGIIKTNKKTGQPMINLYTDRETGKLKGEATVSFDDPPSAKAAIDWFDGKEFSGNPIKVSFATRRADFNRGGGNGRGGRGRGGPMGRGGYGGGGSGGGGRGGFPSGGGGGGGQQRAGDWKCPNPTCENMNFSWRNECNQCKAPKPDGPGGGPGGSHMGGNYGDDRRGGRGGYDRGGYRGRGGDRGGFRGGRGGGDRGGFGPGKMDSRGEHRQDRRERPY
B2: MYEF2 (protein, UniProt Q9P2K5 1-600, looked up)
Myelin expression factor 2: MADANKAEVPGATGGDSPHLQPAEPPGEPRREPHPAEAEKQQPQHSSSSNGVKMENDESAKEEKSDLKEKSTGSKKANRFHPYSKDKNSGAGEKKGPNRNRVFISNIPYDMKWQAIKDLMREKVGEVTYVELFKDAEGKSRGCGVVEFKDEEFVKKALETMNKYDLSGRPLNIKEDPDGENARRALQRTGGSFPGGHVPDMGSGLMNLPPSILNNPNIPPEVISNLQAGRLGSTIFVANLDFKVGWKKLKEVFSIAGTVKRADIKEDKDGKSRGMGTVTFEQAIEAVQAISMFNGQFLFDRPMHVKMDDKSVPHEEYRSHDGKTPQLPRGLGGIGMGLGPGGQPISASQLNIGGVMGNLGPGGMGMDGPGFGGMNRIGGGIGFGGLEAMNSMGGFGGVGRMGELYRGAMTSSMERDFGRGDIGINQGFGDSFGRLGSAMIGGFAGRIGSSNMGPVGSGISGGMGSMNSVTGGMGMGLDRMSSSFDRMGPGIGAILERSIDMDRGFLSGPMGSGMRERIGSKGNQIFVRNLPFDLTWQKLKEKFSQCGHVMFAEIKMENGKSKGCGTVRFDSPESAEKACRIMNGIKISGREIDVRLDRNA
B3: EDF1 (protein, UniProt O60869 2-148, looked up)
Endothelial …: AESDWDTVTVLRKKGPTAAQAKSKQAILAAQRRGEDVETSKKWAAGQNKQHSITKNTAKLDRETEELHHDRVTLEVGKVIQQGRQSKGLTQKDLATKINEKPQVIADYESGRAIPNNQVLGKIERAIGLKLRGKDIGKPIEKGPRAK
B4: PGK2 (protein, UniProt P07205 2-417, looked up)
Phosphoglycerate kinase 2: SLSKKLTLDKLDVRGKRVIMRVDFNVPMKKNQITNNQRIKASIPSIKYCLDNGAKAVVLMSHLGRPDGVPMPDKYSLAPVAVELKSLLGKDVLFLKDCVGAEVEKACANPAPGSVILLENLRFHVEEEGKGQDPSGKKIKAEPDKIEAFRASLSKLGDVYVNDAFGTAHRAHSSMVGVNLPHKASGFLMKKELDYFAKALENPVRPFLAILGGAKVADKIQLIKNMLDKVNEMIIGGGMAYTFLKVLNNMEIGASLFDEEGAKIVKDIMAKAQKNGVRITFPVDFVTGDKFDENAQVGKATVASGISPGWMGLDCGPESNKNHAQVVAQARLIVWNGPLGVFEWDAFAKGTKALMDEIVKATSKGCITVIGGGDTATCCAKWNTEDKVSHVSTGGGASLELLEGKILPGVEALSNM
B5: PABPN1 (protein, UniProt Q86U42 2-306, looked up)
Polyadenylate-binding protein …: AAAAAAAAAAGAAGGRGSGPGRRRHLVPGAGGEAGEGAPGGAGDYGNGLESEELEPEELLLEPEPEPEPEEEPPRPRAPPGAPGPGPGSGAPGSQEEEEEPGLVEGDPGDGAIEDPELEAIKARVREMEEEAEKLKELQNEVEKQMNMSPPPGNAGPVIMSIEEKMEADARSIYVGNVDYGATAEELEAHFHGCGSVNRVTILCDKFSGHPKGFAYIEFSDKESVRTSLALDESLFRGRQIKVIPKRTNRPGISTTDRGFPRARYRARTTNYNSSRSRFYSGFNSRPRGRVYRGRARATSWYSPY
B6: KHSRP (protein, UniProt Q92945 2-711, looked up)
Far upstream element-binding …: SDYSTGGPPPGPPPPAGGGGGAGGAGGGPPPGPPGAGDRGGGGPGGGGPGGGSAGGPSQPPGGGGPGIRKDAFADAVQRARQIAAKIGGDAATTVNNSTPDFGFGGQKRQLEDGDQPESKKLASQGDSISSQLGPIHPPPRTSMTEEYRVPDGMVGLIIGRGGEQINKIQQDSGCKVQISPDSGGLPERSVSLTGAPESVQKAKMMLDDIVSRGRGGPPGQFHDNANGGQNGTVQEIMIPAGKAGLVIGKGGETIKQLQERAGVKMILIQDGSQNTNVDKPLRIIGDPYKVQQACEMVMDILRERDQGGFGDRNEYGSRIGGGIDVPVPRHSVGVVIGRSGEMIKKIQNDAGVRIQFKQDDGTGPEKIAHIMGPPDRCEHAARIINDLLQSLRSGPPGPPGGPGMPPGGRGRGRGQGNWGPPGGEMTFSIPTHKCGLVIGRGGENVKAINQQTGAFVEISRQLPPNGDPNFKLFIIRGSPQQIDHAKQLIEEKIEGPLCPVGPGPGGPGPAGPMGPFNPGPFNQGPPGAPPHAGGPPPHQYPPQGWGNTYPQWQPPAPHDPSKAAAAAADPNAAWAAYYSHYYQQPPGPVPGPAPAPAAPPAQGEPPQPPPTGQSDYTKAWEEYYKKIGQQPQQPGAPPQQDYTKAWEEYYKKQAQVATGGGPGAPPGSQPDYSAAWAEYYRQQAAYYGQTPGPGGPQPPPTQQGQQQAQ
B7: ATXN2L: host protein, UniProt Q8WWM7 (protein, UniProt Q8WWM7 1-1075, looked up)
Ataxin-2-like protein: MLKPQPLQQPSQPQQPPPTQQAVARRPPGGTSPPNGGLPGPLATSAAPPGPPAAASPCLGPVAAAGSGLRRGAEGILAPQPPPPQQHQERPGAAAIGSARGQSTGKGPPQSPVFEGVYNNSRMLHFLTAVVGSTCDVKVKNGTTYEGIFKTLSSKFELAVDAVHRKASEPAGGPRREDIVDTMVFKPSDVMLVHFRNVDFNYATKDKFTDSAIAMNSKVNGEHKEKVLQRWEGGDSNSDDYDLESDMSNGWDPNEMFKFNEENYGVKTTYDSSLSSYTVPLEKDNSEEFRQRELRAAQLAREIESSPQYRLRIAMENDDGRTEEEKHSAVQRQGSGRESPSLASREGKYIPLPQRVREGPRGGVRCSSSRGGRPGLSSLPPRGPHHLDNSSPGPGSEARGINGGPSRMSPKAQRPLRGAKTLSSPSNRPSGETSVPPPPAVGRMYPPRSPKSAAPAPISASCPEPPIGSAVPTSSASIPVTSSVSDPGVGSISPASPKISLAPTDVKELSTKEPGRTLEPQELARIAGKVPGLQNEQKRFQLEELRKFGAQFKLQPSSSPENSLDPFPPRILKEEPKGKEKEVDGLLTSEPMGSPVSSKTESVSDKEDKPPLAPSGGTEGPEQPPPPCPSQTGSPPVGLIKGEDKDEGPVAEQVKKSTLNPNAKEFNPTKPLLSVNKSTSTPTSPGPRTHSTPSIPVLTAGQSGLYSPQYISYIPQIHMGPAVQAPQMYPYPVSNSVPGQQGKYRGAKGSLPPQRSDQHQPASAPPMMQAAAAAGPPLVAATPYSSYIPYNPQQFPGQPAMMQPMAHYPSQPVFAPMLQSNPRMLTSGSHPQAIVSSSTPQYPSAEQPTPQALYATVHQSYPHHATQLHAHQPQPATTPTGSQPQSQHAAPSPVQHQAGQAPHLGSGQPQQNLYHPGALTGTPPSLPPGPSAQSPQSSFPQPAAVYAIHHQQLPHGFTNMAHVTQAHVQTGITAAPPPHPGAPHPPQVMLLHPPQSHGGPPQGAVPQSGVPALSASTPSPYPYIGHPQGEQPGQAPGFPGGADDRIREFSLAGGIWHGRAEGLQVGQDARVLGGE

Key:
Format in all cases: binding
SARS-CoV-2 gRNA = conditions: for target (unweighted spectral count of the protein in the RNP capture): LC-MS/MS, Probe I sample (first 199 lines of Table 2); for target (unweighted spectral count in RNP capture): Probe I capture, LC-MS/MS LFQ; for background (unweighted spectral count in control): no-probe control pull-down, used as background for Probe I
[1] = test system: SARS-CoV-2 gRNA and sgRNAs; conditions: for target (unweighted spectral count in RNP capture): Probe II capture, LC-MS/MS LFQ; for background (unweighted spectral count in control): no-probe control pull-down, used as background for Probe II
HCoV-OC43 gRNA and sgRNA = conditions: for target (unweighted spectral count, OC43 Probe II capture) / target (unweighted spectral count): tested against no-probe control; for target (unweighted spectral count, OC43 Probe II capture): FDR<10%; for target (unweighted spectral count): OC43 Probe II, infected cells; for target (unweighted spectral count, OC43 Probe II) / background (unweighted spectral count, no-probe control): type n_48_v, 48 hpi; for target (unweighted spectral count, OC43 Probe II): OC43 Probe II capture on infected cells; for background (unweighted spectral count, no-probe control): no-probe control on infected cells

Row | Molecule | target (unweighted spectral count of the protein in the RNP capture) (SARS-CoV-2 gRNA) | target (unweighted spectral count in RNP capture) ([1]; […]) | background (unweighted spectral count in control) [1] | target (unweighted spectral count, OC43 Probe II capture) (HCoV-OC43 gRNA and sgRNA; 36 hpi, type n_36_v) | target (unweighted spectral count) (HCoV-OC43 gRNA and sgRNA; 12 hpi (type n_12_v)) | target (unweighted spectral count) (HCoV-OC43 gRNA and sgRNA; 24 hpi (type n_24_v)) | target (unweighted spectral count, OC43 Probe II) (HCoV-OC43 gRNA and sgRNA) | background (unweighted spectral count, no-probe control) (HCoV-OC43 gRNA and sgRNA) | target (unweighted spectral count in RNP capture) (SARS-CoV-2 gRNA) | background (unweighted spectral count in control) (SARS-CoV-2 gRNA) | target (unweighted spectral count, OC43 Probe II capture) (HCoV-OC43 gRNA and sgRNA; 24 hpi, type n_24_v) | target (unweighted spectral count of the protein in the RNP capture experiment) ([1]; […], LC-MS/MS label-free quantification, probe pool not given) | back-ground (unweighted spectral count of the protein in the control experiment) ([1]; protein background of the control (e.g. no-probe) experiment, […]) | target (spectral count) (HCoV-OC43 gRNA and sgRNA; type s_36_m, HCoV-OC43-infected HCT-8 cells, 36 hpi, Probe II) | background (spectral count) (HCoV-OC43 gRNA and sgRNA; type s_36_m, uninfected-probe control, 36 hpi, Probe II)
1 | B1 | 5 | 7 | 1 | 7 | 6 | 9 | 11 | 1 | – | – | – | – | – | – | –
2 | B2 | 19 | – | 1 | – | – | – | – | – | – | – | – | – | – | – | –
3 | B3 | – | 8 | 1 | – | – | – | – | – | 5 | 1 | 4 | – | – | – | –
4 | B4 | – | – | – | – | – | – | – | – | 5 | 1 | – | 5 | 1 | – | –
5 | B5 | 12 | 11 | 1 | – | – | – | 8 | 2 | – | – | 5 | – | – | – | –
6 | B6 | 128 | 82 | 1 | 76 | 23 | 47 | 86 | 5 | – | – | – | – | – | – | –
7 | B7 | 9 | 28 | 1 | 10 | 4 | 6 | 12 | 1 | – | – | – | – | – | 10 | 1

From patent publication US20230407373A1 (priority 2020, published 2023)
